In patent US20140296501 one finds Kd data, which are given here for 2 sequences.

For this data set, the target named is EGFR (ERBB1) (UniProt P00533).

Where two headings read alike, the source gives them in different places.

Under “N = BndU [n positions 2,8,9,11,15,20,21,23,24,28,29,31,32,33,37,38 = modified dU]”, “ATCGAGGTTGTGGGTCGGATTGTTGGATTCTTTAAGTTGGGAACACCAAC [EGFR aptamer SEQ ID NO: 5 (50-mer truncate)]” showed a Kd of 0.526 nM.

Turning to “CCACGCTGGGTGGGTCATCGAGGTTGTGGGTCGGATTGTTGGATTCTTTAAGTTGGGAACACCAACCGAGAACG [EGFR aptamer SEQ ID NO: 4]”, the Kd (N = BndU (5-benzylaminocarbonyl-2'-deoxyuridine), text prints natural T in the 5' region CCACGCTGGGTGGGTC while listing shows n there [n positions 7,11,15,18,24,25,27,31,36,37,39,40,44,45,47,48,49,53,54 = modified dU]) is 0.123 nM.

What is called Kd is a measure of binding affinity in units of concentration.
